Test results as given in PMC12584617.

Tested on: T1, NsrX (Alr1976) (Anabaena sp. strain PCC 7120), ORF:44a8eb4f
T1 sequence: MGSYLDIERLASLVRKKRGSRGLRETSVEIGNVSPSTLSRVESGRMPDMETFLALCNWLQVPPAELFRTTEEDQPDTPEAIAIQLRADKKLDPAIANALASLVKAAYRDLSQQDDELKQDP
Experiment: EMSA
Conditions: 10 mM Bis-Tris-HCl pH 7.5, 40 mM KCl, 0.1 mg/mL BSA, 5% glycerol, 50 ng DNA, 50-100 ng ifpkn22 competitor, 30 min room temperature; NsrX +100 uM MnCl2 (also in …)

Sequence	binding
CATCTTGGAAACCAAGTTGCACAAACATCAGTAAGACAATAAAAGCAATGCCAGCTACAGCTATAAGAAAACGAATTTTCTGTTGGACTAGCTGTAGCCATGCTAAAGGAATTTTAAAATTCATATTGATTTTGTCAGTTGACAGTTGATAGTTGATAGTTGTCAGTTGACTAATGACAATTAAATTTGAATCGCTACATCAACTTGTAAGTTGGTCAAACGTCCTACCCGTTCGCTATCTGCG (double strand) [PhgdC]	binds
GGCGTGTGGCTCTTGTTCTAGTAGTACAGCCACCTTAAAGATAGCGATTGAATCCAGATTACGCGATCGCATCAACCCCAGCCTAGTAGTAGAAGCAGTTTAGTTAACAGTTAACAGTAAACCGTTAACTAACACCCAAAAGAACTTTCACAACTACATAACGAACCCATCATGAACACTAATTCTACTGGTTTTTCTGTGGAGCGATCGCCCCCTCTTCGGCGACGTTCTACAAACCCCTCACAGCCATAGCTCAACAGGCGTGAGATCCAAACACAAAGACCGACCAACTAACCAACC (double strand) [PnifHDK]	binds
